Results: patent US20240384250A1, “FIBROBLAST GROWTH FACTOR 23 MODULATING COMPOUNDS” (THE UAB RESEARCH FOUNDATION, priority 2021, published 2024)
“Also recorded” adds a separate entry of the source.

Tests used:
[1] = target: T1, FGF23 binding to FGFR3c (Homo sapiens, UniProt P22607+Q9GZV9); experiment: Pull-down of FGF23 with Fc-FGFR on protein A/G beads with sKL, heparin or PBS; settings: with heparin, or alone
T1 construct: Fc-coupled FGFR ectodomains were immobilized on protein A/G beads; purchased R&D Systems 2604FG025/CF or 2629FG025/CF; 766FR050
T1 sequence (Q9GZV9 25-251): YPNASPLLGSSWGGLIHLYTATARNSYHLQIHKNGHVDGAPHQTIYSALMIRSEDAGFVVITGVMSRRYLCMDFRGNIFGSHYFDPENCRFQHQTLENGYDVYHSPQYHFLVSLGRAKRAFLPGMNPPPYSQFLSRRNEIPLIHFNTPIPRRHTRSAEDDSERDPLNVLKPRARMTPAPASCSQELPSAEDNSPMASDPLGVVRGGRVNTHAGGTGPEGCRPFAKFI
T1 sequence (P22607 23-375 limits assumed): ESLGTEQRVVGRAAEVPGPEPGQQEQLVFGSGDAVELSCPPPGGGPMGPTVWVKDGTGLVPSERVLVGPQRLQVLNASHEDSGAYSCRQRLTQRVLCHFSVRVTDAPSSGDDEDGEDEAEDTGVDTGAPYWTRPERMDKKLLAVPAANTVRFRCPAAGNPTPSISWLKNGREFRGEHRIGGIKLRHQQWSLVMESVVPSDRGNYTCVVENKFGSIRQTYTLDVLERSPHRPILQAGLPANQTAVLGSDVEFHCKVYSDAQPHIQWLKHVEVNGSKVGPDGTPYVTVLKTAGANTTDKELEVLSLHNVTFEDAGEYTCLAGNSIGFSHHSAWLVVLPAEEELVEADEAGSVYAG
Method: (§1) To study the interaction between Fc-tagged FGFR isoforms (Fc-FGFR), FGF isoforms, and sKL, immunoprecipitation studies were conducted. Protein A beads (6501, BioVision) and protein G beads (6511, BioVision) were used at 25 μl of a 50% stock slurry per sample in a total bead volume of 50 μl. Beads were washed 5× in activity buffer (50 mM Tris [pH 7.4], 200 mM NaCl, 0.01% Tween 20). Bead spin-down assays were all performed for 2 minutes at 5000 g. Beads were resuspended in 1 ml of activity buffer in a 1.5-ml snap cap tube. One microgram of Fc-FGFR1 to 4 was incubated with the beads for 1 hour on a bead rotator. Control samples were incubated with 2 μg of anti-FGF antibody instead of Fc-FGFR. Beads were then pelleted at 5000 g for 2 minutes and washed 5× with activity buffer. Beads were resuspended and incubated with different combinations of 500 ng of FGF, 1 μg of sKL, 1.6 United States Pharmacopeia (USP) units of heparin, or phosphate-buffered saline (PBS). Beads were incubated for 1 hour on a tube rotator, and beads were pelleted and washed as before. One hundred microliters of 1× Laemmli sample buffer (1610737, Bio-Rad) with 1.42 M 2-mercaptoethanol was added, and samples were boiled for 5 minutes. Samples were analyzed using SDS-PAGE and Western blotting.
(§2) The sample (20 μl) was loaded onto Mini-PROTEAN TGX Precast Gel 4-20% for experiments with <9 samples (4568094, Bio-Rad) or Criterion TGX Precast Gel 4-20% (5678094, Bio-Rad) for experiments with >9 samples. Gels were run in 1× Tris/Glycine/SDS buffer (1610732, Bio-Rad) at 150 V and stopped when the sample dye reached the end of the gel. Gels were removed and electrotransferred via a semi-dry cassette (1703940, Bio-Rad) in I× Tris/Glycine buffer (1610734, Bio-Rad) with 20% methanol. Gels were transferred onto polyvinylidene diflouride membranes (IPVH00010, Millipore) at 20 V for 1 hour. Membranes were then blocked in 5% dried milk with 0.5% Tween 20 diluted in Tris-buffered saline (TBST; pH 7.5) for 1 hour and probed with antibodies against specific antigens at 1:1000 in TBST with 5% dried milk. Blots were washed 3× for 5 minutes in TBST and probed with HRP-coupled secondary antibodies against specific species at 1:10,000 in TBST with 5% dried milk. Membranes were imaged on the SRX-101A X-ray film developer (Konica Minolta).

[2] = target: T2, FGF23 binding to FGFR4 (Homo sapiens, UniProt P22455+Q9GZV9); experiment: as above; settings: with heparin, or alone
T2 construct: Fc-coupled FGFR ectodomains were immobilized on protein A/G beads; purchased R&D Systems 2604FG025/CF or 2629FG025/CF; 685FR050
T2 sequence (Q9GZV9 25-251): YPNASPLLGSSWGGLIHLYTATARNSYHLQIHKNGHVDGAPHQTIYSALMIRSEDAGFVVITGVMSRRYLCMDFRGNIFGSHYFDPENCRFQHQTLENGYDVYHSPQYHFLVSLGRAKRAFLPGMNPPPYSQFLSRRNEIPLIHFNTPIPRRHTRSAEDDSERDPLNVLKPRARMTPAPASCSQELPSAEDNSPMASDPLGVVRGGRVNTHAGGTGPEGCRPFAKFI
T2 sequence (P22455 22-369 limits assumed): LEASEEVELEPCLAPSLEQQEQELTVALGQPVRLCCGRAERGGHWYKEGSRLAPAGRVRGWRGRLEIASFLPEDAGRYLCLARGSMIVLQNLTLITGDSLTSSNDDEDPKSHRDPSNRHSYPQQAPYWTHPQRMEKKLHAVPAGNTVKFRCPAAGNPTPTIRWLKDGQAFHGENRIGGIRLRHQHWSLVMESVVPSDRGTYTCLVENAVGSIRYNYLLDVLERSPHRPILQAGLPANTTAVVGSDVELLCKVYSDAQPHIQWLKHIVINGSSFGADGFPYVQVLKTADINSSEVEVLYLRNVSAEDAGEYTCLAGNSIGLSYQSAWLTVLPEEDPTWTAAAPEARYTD
Method: as §1, §2

[3] = tested on: phosphorylated ERK in HEK293T cells; experiment: ERK phosphorylation in serum-starved HEK293 cells (Western blotting); format: cell-based, human
Method: as §2
To determine the cellular activity of paracrine FGFs, the activation/phosphorylation of ERK in HEK293 cells after treatment was studied. HEK293 cells were seeded in 6-well plates in DMEM (26140079, Gibco) supplemented with I× Pen/Strep (15140122, Gibco) and 10% FBS (26140079, Gibco) and grown for 48 hours. Upon reaching 80% confluence, cells were serum starved overnight in DMEM and 1× Pen/Strep without FBS. The medium was changed, and cells were treated with sKL at 2 μg/ml or vehicle (sKL elution buffer: 25 mM Tris ph 8.0, 500 mM NaCl) for 15 minutes. Cells were then treated with various FGFs at 1.1 nM for 10 minutes. Cells were lysed in 200 μl of RIPA with the addition of a protease inhibitor (11836153001, Roche) and phosphatase inhibitors (P5726 and P0044, Sigma-Aldrich) for 30 minutes. The mixture was then centrifuged at 20,000 g for 60 minutes to remove all cell debris. One hundred microliters of 1× Laemmli sample buffer (1610737, Bio-Rad) with 1.42 M 2-mercaptoethanol was added, and samples were boiled for 5 minutes. Twenty microliters of samples was loaded onto 12% SDS-PAGE gels and analyzed using Western blotting for total and phosphorylated ERK.

Row | Molecule | FGF23 co-precipitation with Fc-FGFR3c [1] | FGF23 co-precipitation with Fc-FGFR4 [2] | ERK phosphorylation induced by FGF ([3]; FGF 1.1 nM for 10 minutes, absence of sKL) | phospho-ERK levels in cells treated with FGF2 ([3]; sKL 2 μg/ml 15 minutes before FGF2) | phospho-ERK levels in cells treated with FGF5 ([3]; sKL 2 μg/ml 15 minutes before FGF5) | ERK phosphorylation in cells incubated with FGF23 ([3]; sKL 2 μg/ml 15 minutes before FGF23) | phospho-ERK levels in cells treated with FGF8b ([3]; sKL 15 minutes before FGF8b)
1 | FGF23: recombinant fibroblast growth factor 23 protein from R&D Systems (protein) YPDTSPLLGSNWGSLTHLYTATARTSYHLQIHRDGHVDGTPHQTIYSALMITSEDAGSVVITGAMTRRFLCMDLHGNIFGSLHFSPENCKFRQWTLENGYDVYLSQKHHYLVSLGRAKRIFQPGTNPPPFSQFLARRNEVPLLHFYTVRPRRHTRSAEDPPERDPLNVLKPRPRATPVPVSCSRELPSAEEGGPAASDPLGVLRRGRGDARGGAGGADRCRPFPRFV | no FGF23 binding was detected | no FGF23 binding was detected | had no effect |  |  |  | 
2 | sKL: recombinant soluble α-klotho ectodomain, mouse aa 35-982 and human aa 34-981, FLAG- or Strep/His-tagged, purified from HEK293 cells (protein, left off: small tags and cut ends, recombinant soluble α-klotho ectodomain, mouse aa 35-982 and human aa 34-981, FLAG- or Strep/His-tagged, purified from HEK293 cells) EPGDGAQTWARFSRPPAPEAAGLFQGTFPDGFLWAVGSAAYQTEGGWQQHGKGASIWDTFTHHPLAPPGDSRNASLPLGAPSPLQPATGDVASDSYNNVFRDTEALRELGVTHYRFSISWARVLPNGSAGVPNREGLRYYRRLLERLRELGVQPVVTLYHWDLPQRLQDAYGGWANRALADHFRDYAELCFRHFGGQVKYWITIDNPYVVAWHGYATGRLAPGIRGSPRLGYLVAHNLLLAHAKVWHLYNTSFRPTQGGQVSIALSSHWINPRRMTDHSIKECQKSLDFVLGWFAKPVFIDGDYPESMKNNLSSILPDFTESEKKFIKGTADFFALCFGPTLSFQLLDPHMKFRQLESPNLRQLLSWIDLEFNHPQIFIVENGWFVSGTTKRDDAKYMYYLKKFIMETLKAIKLDGVDVIGYTAWSLMDGFEWHRGYSIRRGLFYVDFLSQDKMLLPKSSALFYQKLIEKNGFPPLPENQPLEGTFPCDFAWGVVDNYIQVDTTLSQFTDLNVYLWDVHHSKRLIKVDGVVTKKRKSYCVDFAAIQPQIALLQEMHVTHFRFSLDWALILPLGNQSQVNHTILQYYRCMASELVRVNITPVVALWQPMAPNQGLPRLLARQGAWENPYTALAFAEYARLCFQELGHHVKLWITMNEPYTRNMTYSAGHNLLKAHALAWHVYNEKFRHAQNGKISIALQADWIEPACPFSQKDKEVAERVLEFDIGWLAEPIFGSGDYPWVMRDWLNQRNNFLLPYFTEDEKKLIQGTFDFLALSHYTTILVDSEKEDPIKYNDYLEVQEMTDITWLNSPSQVAVVPWGLRKVLNWLKFKYGDLPMYIISNGIDDGLHAEDDQLRVYYMQNYINEALKAHILDGINLCGYFAYSFNDRTAPRFGLYRYAADQFEPKASMKHYRKIIDSNGFPGPETLERFCPEEFTVCTECSFFHTRKS | could coprecipitate sKL and FGF23 | could coprecipitate sKL and FGF23 |  | decreased phospho-ERK levels; also recorded: did not occur | decreased phospho-ERK levels; also recorded: did not occur | induced ERK phosphorylation; also recorded: increased pERK levels | did not occur
